Positions count from the first letter of the chain named.
Key:
[1] = molecular target: T1, Human NME7-AB, also known as NME7AB (recombinant, devoid of the DM10 domain) (human, UniProt Q9Y5B8 92-376); experiment: sandwich ELISA, HRP signal (FIG. 1)
T1 construct: Recombinant, expressed in E. coli, purified over NTA-Ni and by size exclusion; monomer of about 33 kDa; also called NME-AB
T1 sequence: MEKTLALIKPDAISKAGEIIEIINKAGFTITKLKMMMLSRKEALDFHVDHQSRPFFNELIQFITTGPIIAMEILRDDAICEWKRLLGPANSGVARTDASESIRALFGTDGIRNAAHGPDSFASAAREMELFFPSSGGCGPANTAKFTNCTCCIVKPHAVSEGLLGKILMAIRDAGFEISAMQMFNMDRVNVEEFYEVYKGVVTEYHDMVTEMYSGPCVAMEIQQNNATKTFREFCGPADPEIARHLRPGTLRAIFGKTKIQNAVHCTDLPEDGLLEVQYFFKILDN
Procedure: The PSMGFR peptide bearing a C-terminal Cysteine (PSMGFR-Cys) was covalently coupled to BSA using Imject Maleimide activated BSA kit (Thermo Fisher). PSMGFR-Cys coupled BSA was diluted to 10 ug/mL in 0.1M carbonate/bicarbonate buffer pH 9.6 and 50 uL was added to each well of a 96 well plate. After overnight incubation at 4° C., the plate was washed twice with PBS-T and a 3% BSA solution was added to block remaining binding site on the well. After 1h at RT the plate was washed twice with PBS-T and NME7, diluted in PBS-T+1% BSA, was added at different concentrations. After 1h at RT the plate was washed 3× with PBS-T and anti-NM23-H7 (B-9, Santa Cruz Biotechnology), diluted in PBS-T+1% BSA, was added at 1/500 dilution. […] After 1h at RT the plate was washed 3× with PBS-T and binding of NME7 was measured at 415 nm using ABTS solution (Pierce). […]
After 1h at RT the plate was washed 3× with PBS-T and His-Tagged PSMGFR peptide (PSMGFR-His) or biotinylated PSMGFR peptide (PSMGFR-biotin), diluted in PBS-T+1% BSA, was added at different concentration. […] After 1h at RT the plate was washed 3× with PBS-T and binding of PSMGFR peptide to NME7 already bound to another PSMGFR peptide (which could not signal by anti-His antibody or by streptavidin) coupled BSA was measured at 415 nm using a ABTS solution (Pierce).

[2] = molecular target: T1, Human NME7-AB, also known as NME7AB …; experiment: ELISA, plate coated with recombinant NME7-AB (FIG. 24)

B1: PSMGFR peptide (MUC1* extra cellular domain peptide) (peptide)
peptide: GTINVHDVETQFNQYKTEAASRYNLTISDVSVSDVPFPFSAQSGA
notes: Synthetic peptide immobilized on ELISA plates; also called MUC1* peptide; FLR
Does B1 bind [1]?
Result: binds

B2: Monoclonal antibody 8F9A4A3 (antibody, V domains shown)
VH: VQLQQSGPELVKPGASVKISCKTSGNTFTEYTMHWVKQSHGKSLEWIGGFNPNNGVTNYNQKFKGKATLTVDKSSSTAYMELRSLTSEDSAVYYCARRYYHSLYVFYFDYWGQGTTLTVSS
VL: ETTVTQSPASLSMAIGEKVTIRCITSTDIDDDMNWYQQKPGEPPKLLISEGNTLRPGVPSRFSSSGYGTDFVFTIENMLSEDVADYYCLQSDNLPLTFGSGTKLEIKR
notes: Mouse monoclonal antibody
Does B2 bind [2]?
Result: binds

B3: Monoclonal Antibody 5F3A5D4 (antibody, V domains shown)
VH: B2 VH with E9D, A15T, L103T, Y110S
VL: DIQMTQTTSSLSASLGDRVTISCSASQGISNYLNWFQQKPDGTIKLLIYYTSSLHSGVPSRFSGSGSGTDYSLTISNVEPEDIATYYCQQYSKLPYTFGGGTKLEIKR
notes: Mouse monoclonal antibody
Does B3 bind [2]?
Result: binds

B4: Monoclonal Antibody 8F9A5A1 (antibody, V domains shown)
VH: IQLVQSGPELKKPGETVKISCKASGYTFTNYGMNWVKQAPGKGLKWMGWINTYTGEPTYVDDFKGRFAFSLETSATTAYLQINNLKNEDTSTYFCARLRGIRPGPLAYWGQGTLVTVSA
VL: EILLTQSPAIIAASPGEKVTITCSASSSVSYMNWYQQKPGSSPKIWIYGISNLASGVPARFSGSGSGTSFSFTINSMEAEDVATYYCQQRSSYPPTFGGGTKLEIKR
notes: Mouse monoclonal antibody
Does B4 bind [2]?
Result: binds

Source: patent publication US20220259324A1 (MINERVA BIOTECHNOLOGIES, published 2022)
